The values that follow come from publication PMC3285215, “The TAL Effector PthA4 Interacts with Nuclear Factors Involved in RNA-Dependent Processes Including a HMG Protein That Selectively Binds Poly(U) RNA”.

In data set [1] the target is T1, CsHMGΔNΔC (Citrus sinensis, UniProt G9I829 56-125). Kind of data set: EMSA. Conditions: protein: recombinant; label: 5' 32P. A general note: Mobility shift assays separate free from complexed probe on a gel.
The next data set concerns the target CsHMGΔN (Citrus sinensis, UniProt G9I829 56-165). Briefly: EMSA. The following applies: protein: recombinant; label: 5' 32P.
Another data set addresses CsHMGΔC (Citrus sinensis, UniProt G9I829 1-125). Kind of data set: EMSA. Conditions: protein: recombinant; label: 5' 32P.
The next data set concerns the target PthA4 (Xanthomonas citri, UniProt A0AAI8ETU3 1-1163). Briefly: EMSA; 5 mM Mg2+; […], pH 7.5 ([…], pH 7.5, 20 min. Conditions: protein: recombinant; tags: 6xHis; label: 5' 32P.
A further data set concerns the target PthA4 RD (Xanthomonas citri, UniProt A0AAI8ETU3 289-885). Briefly: EMSA; 5 mM Mg2+; […], pH 7.5 ([…], pH 7.5, 20 min. Conditions: protein: recombinant; label: 5' 32P.
Data set [2] addresses T2, CsHMG (Citrus sinensis, UniProt G9I829 1-165). Kind of data set: competition; 1-30x cold poly(U). The following applies: protein: recombinant; tags: 6xHis; label: 5' 32P.
A further data set deals with PthA4;CsHMG (Xanthomonas citri;Citrus sinensis, UniProt A0AAI8ETU3;G9I829 1-1163;1-165, |). Kind of data set: EMSA; ternary complex suggested by higher MW bands; […], pH 7.5 ([…], pH 7.5, 20 min. Conditions: protein: recombinant;recombinant; tags: 6xHis;6xHis; label: 5' 32P.
In data set [3] the target is T1, CsHMGΔNΔC. Kind of data set: competition; 1-30x vs poly(U) probe. The following applies: protein: recombinant; label: 5' 32P (direct EMSA).
Data set [4] addresses T2, CsHMG. Kind of data set: EMSA; 0.5 and 1.0 ug protein. The following applies: protein: recombinant; tags: 6xHis; label: 5' 32P (direct EMSA).

T1 sequence (G9I829 entry or part of it mutant): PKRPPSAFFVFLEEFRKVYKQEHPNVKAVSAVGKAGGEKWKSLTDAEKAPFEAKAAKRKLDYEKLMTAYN
CsHMGΔC, sequence (G9I829 entry or part of it mutant): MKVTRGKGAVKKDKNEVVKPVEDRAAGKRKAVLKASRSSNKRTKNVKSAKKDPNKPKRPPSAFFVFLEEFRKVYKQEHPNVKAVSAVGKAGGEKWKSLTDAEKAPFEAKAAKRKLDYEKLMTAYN
CsHMGΔN, sequence (G9I829 entry or part of it mutant): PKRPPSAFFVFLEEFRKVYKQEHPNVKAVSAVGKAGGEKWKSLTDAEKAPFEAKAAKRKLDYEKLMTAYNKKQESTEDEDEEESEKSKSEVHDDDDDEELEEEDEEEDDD

UUUUUUUUUUUUUUUUUUUU (ssRNA) [poly(U) U-20]: the binding result with CsHMGΔNΔC [1], in the data set with CsHMGΔN, in the data set with CsHMGΔC, with PthA4, in the data set with PthA4 RD and with CsHMG [2] was “binds” each time. Moreover, the binding result with PthA4;CsHMG was “binds”.
UUAUUAUUUAUUUAUUUAUU (ssRNA) [AU-rich RNA]: the binding result in the data set with CsHMGΔNΔC [3] and in the data set with CsHMG [4] was “no binding” throughout.
